# From IntAct's records for PubMed 16810321
# B1: bZIP transcription factor 53 (Arabidopsis thaliana (Mouse-ear cress)), Q9LZP8 (parent)
# chain: MGSLQMQTSPESDNDPRYATVTDERKRKRMISNRESARRSRMRKQKQLGDLINEVTLLKNDNAKITEQVDEASKKYIEMESKNNVLRAQASELTDRLRSLNSVLEMVEEISGQALDIPEIPESMQNPWQMPCPMQPIRASADMFDC
# partner: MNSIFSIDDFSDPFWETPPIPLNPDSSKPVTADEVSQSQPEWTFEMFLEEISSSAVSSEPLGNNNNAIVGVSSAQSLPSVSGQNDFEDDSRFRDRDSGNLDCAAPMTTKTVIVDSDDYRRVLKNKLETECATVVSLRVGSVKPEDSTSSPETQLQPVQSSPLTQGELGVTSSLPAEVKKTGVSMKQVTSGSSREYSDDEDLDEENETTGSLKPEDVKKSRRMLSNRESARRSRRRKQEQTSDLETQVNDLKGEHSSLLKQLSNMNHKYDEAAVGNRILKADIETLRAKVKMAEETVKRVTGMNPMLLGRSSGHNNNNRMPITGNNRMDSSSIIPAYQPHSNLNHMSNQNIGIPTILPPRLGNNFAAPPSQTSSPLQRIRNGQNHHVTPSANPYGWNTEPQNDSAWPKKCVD
# B2: bZIP transcription factor 53 (Arabidopsis thaliana (Mouse-ear cress)), Q9LZP8 (parent)
# chain: B1 chain
# partner: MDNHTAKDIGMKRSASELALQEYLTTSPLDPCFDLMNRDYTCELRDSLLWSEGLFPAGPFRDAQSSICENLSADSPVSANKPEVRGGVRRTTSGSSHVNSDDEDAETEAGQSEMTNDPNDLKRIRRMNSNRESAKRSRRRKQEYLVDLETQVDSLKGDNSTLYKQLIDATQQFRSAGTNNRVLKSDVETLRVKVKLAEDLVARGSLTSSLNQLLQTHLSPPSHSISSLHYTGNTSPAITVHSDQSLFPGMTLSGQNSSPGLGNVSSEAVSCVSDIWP
# Variants of: B1
# Settings: with bzp10_arath BZIP10, O22763
row,Variant,effect of a mutation on the interaction
1,MGSLQMQTSPESDNDPRYATVTDERKRKRMISNRESARRSRMRKQKQLGDPINEVTLLKNDNAKITEQVDEASKKYIEMESKNNVLRAQASELTDRLRSLNSVLEMVEEISGQALDIPEIPESMQNPWQMPCPMQPIRASADMFDC [L51P],disrupting interaction
2,MGSLQMQTSPESDNDPRYATVTDERKRKRMISNRESARRSRMRKQKQLGDLINEVTLLKNDNAKITEQVDEPSKKYIEMESKNNVLRAQASELTDRLRSLNSVLEMVEEISGQALDIPEIPESMQNPWQMPCPMQPIRASADMFDC [A72P],disrupting interaction

# Variants of: B2
# Settings: with bzip9_arath BZIP9, Q9FUD3
row,Variant,effect of a mutation on the interaction
1,MGSLQMQTSPESDNDPRYATVTDERKRKRMISNRESARRSRMRKQKQLGDLINEVTLLKNDNAKITEQVDEPSKKYIEMESKNNVLRAQASELTDRLRSLNSVLEMVEEISGQALDIPEIPESMQNPWQMPCPMQPIRASADMFDC [A72P],disrupting interaction
2,MGSLQMQTSPESDNDPRYATVTDERKRKRMISNRESARRSRMRKQKQLGDPINEVTLLKNDNAKITEQVDEASKKYIEMESKNNVLRAQASELTDRLRSLNSVLEMVEEISGQALDIPEIPESMQNPWQMPCPMQPIRASADMFDC [L51P],disrupting interaction
